Results from patent US12065505B2, “Antibodies and antigen binding peptides for factor XIa inhibitors and uses thereof” (Bristol-Myers Squibb Company, priority 2021, dated 2024).
Numbering of substitutions follows the chain as printed.

B1: 26D5-75602-348-F04-mAb: human IgG1f/kappa mAb; VH SEQ ID NO: 58, VL SEQ ID NO: 88 (antibody, V domains shown)
VH: EVQLVESGGGLIQPGGSLRLSCAASGFTVSSNQFSWVRQAPGKGLEWVSYFYPGGRTYYADSVKGRFTISRDNSKNTLYLQMNSLRAEDTAVYYCAKAGFGGGDYWGQGTLVTVSS
VL: DIQMTQSPSSVSASVGDRVTITCRASQGISSNLAWYQQKPGKAPKLLIYAASSLQSGVPSRFSGSGSGTDFTLTISSLQPEDFATYYCQQANSFPLTFGGGTKVEIK
B2: 26D5-296-G08-mAb: human IgG1f/kappa mAb; VH SEQ ID NO: 70, VL SEQ ID NO: 95 (antibody, V domains shown)
VH: B1 VH with T28Q, Q33Y, F34M, Y50F, F51I, P53S, K97R
VL: B1 VL with G28Y, S30E
B3: 26D5-075017-343-F04-mAb: human IgG1f/kappa mAb; VH SEQ ID NO: 60, VL SEQ ID NO: 91 (antibody, V domains shown)
VH: B1 VH with Q33A, F34M, Y50F, F51I, K97R
VL: B1 VL with Y36W
B4: 26D5-296-G07-mAb: human IgG1f/kappa mAb; VH SEQ ID NO: 65, VL SEQ ID NO: 94 (antibody, V domains shown)
VH: B1 VH with S31E, Q33Y, F34M, Y50F, F51I, P53S, K97R
VL: B1 VL with G28Y
B5: 26D5-296-F07-mAb: human IgG1f/kappa mAb; VH SEQ ID NO: 71, VL SEQ ID NO: 94 (antibody, V domains shown)
VH: B1 VH with Q33Y, F34M, Y50F, F51I, P53S, K97R
VL: B1 VL with G28Y
B6: 25D5-296-A07-mAb: human IgG1f/kappa mAb; VH SEQ ID NO: 60, VL SEQ ID NO: 93 (antibody, V domains shown)
VH: B1 VH with Q33A, F34M, Y50F, F51I, K97R
VL: B1 VL with N32W, A91H
B7: 26D5-295-F07-mAb: human IgG1f/kappa mAb; VH SEQ ID NO: 64, VL SEQ ID NO: 88 (antibody, V domains shown)
VH: B1 VH with S31E, Q33A, F34M, Y50F, F51I, P53S, K97R, A98G
VL: B1 VL
B8: 26D5-75576-348-B03-mAb: human IgG1f/kappa mAb; VH SEQ ID NO: 59, VL SEQ ID NO: 88 (antibody, V domains shown)
VH: B1 VH with Q33D, F34M, W36Y, S49A, F51I, P53S, A96V, K97T
VL: B1 VL
B9: 26D5-295-A08-mAb: human IgG1f/kappa mAb; VH SEQ ID NO: 74, VL SEQ ID NO: 88 (antibody, V domains shown)
VH: B1 VH with S31E, Q33Y, F34M, Y50F, F51I, K97R
VL: B1 VL
B10: 26D5-296-F03-mAb: human IgG1f/kappa mAb; VH SEQ ID NO: 70, VL SEQ ID NO: 88 (antibody, V domains shown)
VH: B1 VH with T28Q, Q33Y, F34M, Y50F, F51I, P53S, K97R
VL: B1 VL
B11: 26D5-295-D07-mAb: human IgG1f/kappa mAb; VH SEQ ID NO: 75, VL SEQ ID NO: 88 (antibody, V domains shown)
VH: B1 VH with T28Q, S31E, Q33Y, F34M, Y50F, F51I, P53S, K97R, A98G
VL: B1 VL
B12: 26D5-295-E07-mAb: human IgG1f/kappa mAb; VH SEQ ID NO: 66, VL SEQ ID NO: 88 (antibody, V domains shown)
VH: B1 VH with T28Q, Q33A, F34M, Y50F, F51I, P53S, K97R, A98G
VL: B1 VL
B13: 26D5-296-G03-mAb: human IgG1f/kappa mAb; VH SEQ ID NO: 72, VL SEQ ID NO: 88 (antibody, V domains shown)
VH: B1 VH with T28Q, Q33Y, F34M, Y50F, F51I, K97R
VL: B1 VL
B14: 26D5-296-C08-mAb: human IgG1f/kappa mAb; VH SEQ ID NO: 66, VL SEQ ID NO: 95 (antibody, V domains shown)
VH: B1 VH with T28Q, Q33A, F34M, Y50F, F51I, P53S, K97R, A98G
VL: B1 VL with G28Y, S30E
B15: 26D5-296-H03-mAb: human IgG1f/kappa mAb; VH SEQ ID NO: 63, VL SEQ ID NO: 88 (antibody, V domains shown)
VH: B1 VH with Q33A, F34M, Y50F, F51I, K97R, A98G
VL: B1 VL
B16: 26D5-296-B07-mAb: human IgG1f/kappa mAb; VH SEQ ID NO: 68, VL SEQ ID NO: 93 (antibody, V domains shown)
VH: B1 VH with T28Q, Q33A, F34M, Y50F, F51I, P53S, K97R
VL: B1 VL with N32W, A91H
B17: 26D5-295-C07-mAb: human IgG1f/kappa mAb; VH SEQ ID NO: 67, VL SEQ ID NO: 88 (antibody, V domains shown)
VH: B1 VH with Q33A, F34M, Y50F, F51I, P53S, K97R, A98G
VL: B1 VL
B18: 26D5-295-G07-mAb: human IgG1f/kappa mAb; VH SEQ ID NO: 69, VL SEQ ID NO: 88 (antibody, V domains shown)
VH: B1 VH with Q33Y, F34M, Y50F, F51I, K97R, A98G
VL: B1 VL
B19: 25D5-75592-0348-A04-mAb: human IgG1f/kappa mAb; VH SEQ ID NO: 61, VL SEQ ID NO: 89 (antibody, V domains shown)
VH: B1 VH with Q33A, F34I, S35A, S49A, F51I, A96V, K97T
VL: B1 VL with L33N, A34Q, A50Y, A91G, S93E
B20: 26D5-75746-0348-C07-mAb: human IgG1f/kappa mAb; VH SEQ ID NO: 57, VL SEQ ID NO: 92 (antibody, V domains shown)
VH: B1 VH with Q33A, F51I, P53S, K97A
VL: B1 VL with N32Q, L33V, A50P, S53N, Q55W, S93N
B21: 26D5-296-F08-mAb: human IgG1f/kappa mAb; VH SEQ ID NO: 73, VL SEQ ID NO: 95 (antibody, V domains shown)
VH: B1 VH with Q33Y, F34M, Y50F, F51I, R56E, K97R, A98G
VL: B1 VL with G28Y, S30E
B22: 26D5-296-D08-mAb: human IgG1f/kappa mAb; VH SEQ ID NO: 69, VL SEQ ID NO: 95 (antibody, V domains shown)
VH: B1 VH with Q33Y, F34M, Y50F, F51I, K97R, A98G
VL: B1 VL with G28Y, S30E

assay: SPR (Biacore) Protein A mAb capture, Compound A injected; details: 37° C., binding to Compound A, apparent affinity, for rank ordering only, read-out: KD
Method: The binding of hybridoma expressed 26D5 parent mAb (VH SEQ ID NO: 83 and VL SEQ ID NO: 98 in IgG1 f format)(P1-072224) and affinity matured mAbs to Compound A was examined by SPR (Biacore™) using a protein A capture method. The running buffer was 1×PBS (phosphate buffered saline, pH 7.4) with 0.05% Tween 20 and 2% DMSO. Binding experiments were carried out at 37° C. Protein A was coated on a CM5 S-series sensor chip (Cytiva, Cat. No. 29149603) at high density (2000+ RUs of protein A). The immobilization of protein A was carried out using the standard amine coupling immobilization procedure recommended by the manufacturer. The affinity matured antibody was then captured at a concentration of 2 ug/mL on the protein A surface at a flow rate of 3 uL/min for 2 minutes. Compound A was then injected over the captured antibody at concentrations spanning 100-3 nM (100, 50, 25, 12.5, 6.25, 3.125 nM) (FIG. 10) and for screening concentrations spanning 100-3 nM (100, 33, 11 nM) for 2 minutes at a flow rate of 100 uL/min and allowed to dissociate for at least 450 seconds. The chip surface was regenerated after each cycle with a 40 second pulse of 10 mM Glycine, pH 1.5. Background binding to the protein A surface alone was used to subtract non-specific binding. All experiments were run on a Biacore T200 surface plasmon resonance instrument using Biacore T200 Control software v. 2. Data analysis was performed using Biacore T200 evaluation software v 3.1. Apparent affinities were determined for rank ordering only since dissociation rates were too slow to be measured by Biacore. The names of the mAbs in Table 10 refer to mAbs having the H and L chain sequences of the corresponding Fabs in Table 3 in an IgG1f format.

Kd [nM]	Molecule
< 0.05	B1
0.49	B2
0.11	B3
0.38	B4
0.58	B5
1.6	B6
0.94	B7
< 0.06	B8
0.58	B9
0.54	B10
1	B11
1.2	B12
0.61	B13
0.59	B14
1.1	B15
1.8	B16
1.6	B17
0.67	B18
0.1	B19
0.1	B20
0.68	B21
0.59	B22

same assay, conditions: 37° C., binding to Compound A, apparent, for rank ordering only

Kd [s⁻¹]	Molecule	Ka [M⁻¹ s⁻¹]
<5e-05	B1	910000
0.00039	B2	800000
0.00017	B3	1.5e+06
0.00032	B4	850000
0.00044	B5	760000
0.00027	B6	170000
0.00017	B7	180000
<5e-05	B8	880000
0.00059	B9	1e+06
0.00039	B10	720000
0.00081	B11	800000
0.00023	B12	190000
0.00058	B13	940000
0.00031	B14	530000
0.00018	B15	160000
0.00042	B16	290000
0.00033	B17	200000
0.00043	B18	630000
0.00011	B19	1e+06
0.00024	B20	2.4e+06
0.0006	B21	870000
0.00045	B22	770000
